# Reference: US8394929B2, “Nogo receptor-mediated blockade of axonal growth” (Yale University, priority 2000, dated 2013)
# Like-named read-outs stand apart in the source and are kept apart here.
# Key:
# mouse NgR = target: T1, mouse NgR (Mus musculus, UniProt Q99PI8); assay: AP-fusion protein binding to COS-7 cells expressing mouse NgR
# T1 construct: expressed in transfected cells; host or cells: COS-7
# T1 sequence (Q99PI8 27-473): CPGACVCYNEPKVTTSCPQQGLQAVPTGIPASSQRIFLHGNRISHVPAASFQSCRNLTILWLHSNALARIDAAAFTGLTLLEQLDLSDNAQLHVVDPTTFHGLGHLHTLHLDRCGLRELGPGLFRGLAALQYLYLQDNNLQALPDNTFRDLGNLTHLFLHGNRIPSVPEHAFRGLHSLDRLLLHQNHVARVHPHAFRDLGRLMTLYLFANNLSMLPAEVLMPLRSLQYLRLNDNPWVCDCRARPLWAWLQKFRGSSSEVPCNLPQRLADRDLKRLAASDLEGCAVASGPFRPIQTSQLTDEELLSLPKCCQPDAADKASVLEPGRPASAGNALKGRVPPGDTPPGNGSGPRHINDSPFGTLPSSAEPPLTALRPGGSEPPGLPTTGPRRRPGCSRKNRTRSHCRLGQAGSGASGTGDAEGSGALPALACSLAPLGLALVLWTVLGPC
# Method: To determine if AP-fused deletion mutants of Nogo-66 bind mouse NgR (“mNgR”), COS-7 cells were transfected with a plasmid encoding the mouse NgR sequence ligated into pcDNA3.1. 48 hours after transfection, cells were washed with HBH (Hanks balanced salt solution containing 20 mM sodium Hepes, pH 7.05, and 1 mg ml^−1 bovine serum albumin) and then incubated with condition medium containing one of the AP-fusion proteins described above for 2 hours at 37° C. Cells were then washed, fixed, and left in HBH at 67° C. for 14-16 h to inactivate endogenous AP. AP-fusion protein binding to NgR expressing COS-7 cells was detected with the substrates NBT and BCIP (FIG. 13b).
# (§1) To determine whether mNgR or mNgR deletion mutants bound to hNogo-A (1055-1120), wtNgR or mNgR deletion mutants were transfected into COS-7 cells. Forty-eight hours after the transfection, the transfected COS-7 cells were washed with hanks balanced salt solution containing 20 mM sodium HEPES, pH 7.05, and 1 mg/ml bovine serum albumin (BSA) [hereinafter “HBH”]. Cells were then incubated for 2 hours at 23° C. with a conditioned medium enriched with purified AP-hNogo-A (1055-1120) diluted in HBH. AP-fusion protein was detected as previously described for AP-Sema3A (Takahashi et al., Nature Neurosci. 1:487-493, 1998).
# NgRΔCT = target: T2, NgRΔCT (Mus musculus, UniProt Q99PI8); assay: AP-hNogo-A (1055-1120) binding to COS-7 cells transfected with NgRΔCT
# T2 construct: encodes residues 26 to 305 and 443 to473 of mNgR; vector secretion signal (pSecTag2) (N); 6xHis (C); expressed in transfected cells; host or cells: COS-7
# T2 sequence (Q99PI8 with tags, fused parts or gaps): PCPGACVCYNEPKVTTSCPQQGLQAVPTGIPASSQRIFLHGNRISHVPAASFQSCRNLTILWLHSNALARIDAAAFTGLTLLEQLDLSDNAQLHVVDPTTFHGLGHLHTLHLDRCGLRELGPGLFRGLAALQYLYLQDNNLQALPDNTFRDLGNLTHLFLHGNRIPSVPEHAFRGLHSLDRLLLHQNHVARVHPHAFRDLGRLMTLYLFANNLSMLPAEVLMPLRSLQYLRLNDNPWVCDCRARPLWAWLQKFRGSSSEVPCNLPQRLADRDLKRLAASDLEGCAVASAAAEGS
# Description: The NgRΔCT contruct encodes residues 26 to 305 and 443 to473 of mNgR, thereby including the LRR and GPI regions of mNgR. Primers MycNgR ([…]) and 2NgRt313 ([…]) were used to amplify a sequence from the wtNgR-pSecTag2Hygro plasmid. Primers TM/GPI5 (5′-[…]-3′) and NgR3X (above) were used to amplify a sequence from the wtNgR-pSecTag2Hygro plasmid. The amplified sequences were ligated together at the NotI site and then ligated into the BamHI/XhoI sites of pSecTag2.
# as §1
# [1] = system: dorsal root ganglion neurons; assay: Cell survival in GST-Nogo-treated DRG cultures; assay type: cell-based, chick
# Description: The nanomolar potency is on a par with most known physiologic regulators of axon guidance.
# [2] = system: NGF-differentiated PC12 cells; assay: Axon outgrowth from NGF-differentiated PC12 cells; assay type: cell-based
# Method: For all experiments involving cell culture, the following methods were employed. The culture of embryonic chick E10 and E12 dorsal root ganglion explants and dissociated neurons utilized methods described for E7 dorsal root ganglion cultures (Takahashi et al., (1998) Nature Neurosci. 1, 487-493; Takahashi et al., (1999) Cell 99, 59-69; Goshima et al., (1995) Nature 376, 509-514; Jin & Strittmatter, (1997) J. Neurosci. 7, 6256-6263). NGF-differentiated PC12 cells were cultured as described (Strittmatter et al., (1994) J. Neurosci. 14, 2327-2338). Embryonic spinal cord explants (rat E10 or chick E5) were cultured for 7-14 days in the presence of PDGF-AA to induce differentiation of some cells into mature oligodendrocytes (Vartanian et al., (1999) Proc. Natl. Acad. Sci. USA 96, 731-735). The procedure for growth cone collapse assays is identical to that for analysis of Sema3A-induced growth cone collapse (Takahashi et al., (1998) Nature Neurosci. 1, 487-493; Takahashi et al., (1999) Cell 99, 59-69; Goshima et al., (1995) Nature 376, 509-514; Jin & Strittmatter, (1997) J. Neurosci. 17, 6256-6263). The method for analysis of total neurite outgrowth has also been described (Goshima et al., (1995) Nature 376, 509-514; Jin & Strittmatter, (1997) J. Neurosci. 17, 6256-6263; Strittmatter et al., (1994) J. Neurosci. 14, 2327-2338). […]
Molecule,binding to NgR expressing COS-7 cells (in words) (mouse NgR),binding to NgR expressing COS-7 cells (in words) (mouse NgR; listed as AP-hNogo-A (1055-1120)),binding (in words) (NgRΔCT),number of neurofilament-positive adherent cells [1],apoptotic nuclei identified by DAPI staining ([1]; GST-Nogo-treated specimens) [%],axonal outgrowth (in words) ([2]; bound to substrate surfaces),"axon outgrowth (in words) ([2]; soluble, nM concentrations)"
"AP-Nogo: fusion protein of His6 tag, placental alkaline phosphatase (AP) and the 66 amino acid active domain of Nogo (protein) HHHHHHIIPVEEENPDFWNREAAEALGAAKKLQPAQTAAKNLIIFLGDGMGVSTVTAARILKGQKKDKLGPEIPLAMDRFPYVALSKTYNVDKHVPDSGATATAYLCGVKGNFQTIGLSAAARFNQCNTTRGNEVISVMNRAKKAGKSVGVVTTTRVQHASPAGTYAHTVNRNWYSDADVPASARQEGCQDIATQLISNMDIDVILGGGRKYMFRMGTPDPEYPDDYSQGGTRLDGKNLVQEWLAKRQGARYVWNRTELMQASLDPSVTHLMGLFEPGDMKYEIHRDSTLDPSLMEMTEAALRLLSRNPRGFFLFVEGGRIDHGHHESRAYRALTETIMFDDAIERAGQLTSEEDTLSLVTADHSHVFSFGGYPLRGSSIFGLAPGKARDRKAYTVLLYGNGPGYVLKDGARPDVTESESGSPEYRQQSAVPLDEETHAGEDVAVFARGPQAHLVHGVQEQTFIAHVMAFAACLEPYTACDLAPPAGTTDAAHPGRIYKGVIQAIQKSDEGHPFRAYLESEVAISEELVQKYSNSALGHVNCTIKELRRLFLVDDLVDSLK",selective binding,bound,bound,–,–,–,–
"GST-Nogo: GST fusion protein of the 66 amino acid lumenal-extracellular fragment of Nogo-A, expressed in E. coli (protein, also: GST fusion protein, GST fusion protein of the 66 amino acid lumenal-extracellular fragment of Nogo-A, expressed in E. coli) RIYKGVIQAIQKSDEGHPFRAYLESEVAISEELVQKYSNSALGHVNCTIKELRRLFLVDDLVDSLK",–,–,–,137±24 % of GST-treated cultures,5.2±1.1,reduced to undetectable levels,blocked
